Experimental findings from publication PMC4108063 are described below.

Where two headings read alike, the source gives them in different places.

Experiment [1] deals with human ether-a-go-go-related gene potassium channel (hERG), wild type (human) (UniProt Q12809).
Experiment [2] concerns the target hERG-D591A (human) (UniProt Q12809).
The target in experiment [3] is hERG-H587A (human) (UniProt Q12809).
Experiment [4] addresses hERG-I583A (human) (UniProt Q12809).
Experiment [5] deals with hERG-K595A (human) (UniProt Q12809).
Experiment [6] concerns the target hERG-K608A (human) (UniProt Q12809).
Experiment [7] has as its target hERG-K610A (human) (UniProt Q12809).
Experiment [8] addresses hERG-L586A (human) (UniProt Q12809).
Experiment [9] concerns the target hERG-N588A (human) (UniProt Q12809).
The target in experiment [10] is hERG-N598A (human) (UniProt Q12809).
The target in experiment [11] is hERG-P596A (human) (UniProt Q12809).
Experiment [12] addresses hERG-Q592A (human) (UniProt Q12809).
Experiment [13] addresses hERG-R582A (human) (UniProt Q12809).
The target of experiment [14] is hERG-S600A (human) (UniProt Q12809).
Experiment [15] addresses hERG-S631A (human) (UniProt Q12809).
Experiment [16] has as its target hERG-T613A (human) (UniProt Q12809).
Experiment [17] deals with hERG-Y597A (human) (UniProt Q12809).
Experiment [18] addresses human ether-a-go-go-related gene potassium channel (hERG), wild type (human) (UniProt Q12809). The source holds these as a separate data set.
Experiment [19] has as its target hERG-I583A (human) (UniProt Q12809). This is another data set of the same source.
The target in experiment [20] is hERG-R582A (human) (UniProt Q12809). The source holds these as a separate data set.

For the substance scorpion toxin BmKKx2 (peptide), the IC50 (half-maximum inhibition concentration) of hERG channel currents, whole-cell patch clamp on transfected HEK293 cells in [1] was 26.7 nM; in experiment [18] it was 6.7 nM. The IC50 (half-maximum inhibition concentration) of mutant hERG channel currents, whole-cell patch clamp on transfected HEK293 cells turned out to be 19.6 nM in experiment [2]; 59.7 nM in [3]; 87.5 nM in experiment [4]; 65.2 nM in experiment [5]; 116 nM in [6]; 6.7 nM in [7]. Further, the IC50 (half-maximum inhibition concentration) of mutant hERG channel currents, whole-cell patch clamp on transfected HEK293 cells in experiment [8] came out at 24.3 nM; in experiment [9], 14.5 nM; in [10] it was 15.2 nM; in [11], 60.8 nM; in experiment [12], 89.5 nM; in experiment [13] it was 76.5 nM. Moreover, the IC50 (half-maximum inhibition concentration) of mutant hERG channel currents, whole-cell patch clamp on transfected HEK293 cells in experiment [14] stood at 12.1 nM; in [15], 698 nM; in experiment [16], 42.6 nM; in experiment [17] it was 118 nM. Besides, the percent of mutant hERG channel currents inhibited by 100 nM BmKKx2, whole-cell patch clamp in [19] and in experiment [20] was 70% throughout.
